Source: patent publication US20260070975A1 (SANTA ANA BIO, published 2026)

Molecular target: c-Kit expressed on the cell surface of M-07e cells (human, UniProt P10721 26-976)
Assay: cell-based or functional assay

Sequence of c-Kit expressed on the cell surface of M-07e cells (P10721 26-976): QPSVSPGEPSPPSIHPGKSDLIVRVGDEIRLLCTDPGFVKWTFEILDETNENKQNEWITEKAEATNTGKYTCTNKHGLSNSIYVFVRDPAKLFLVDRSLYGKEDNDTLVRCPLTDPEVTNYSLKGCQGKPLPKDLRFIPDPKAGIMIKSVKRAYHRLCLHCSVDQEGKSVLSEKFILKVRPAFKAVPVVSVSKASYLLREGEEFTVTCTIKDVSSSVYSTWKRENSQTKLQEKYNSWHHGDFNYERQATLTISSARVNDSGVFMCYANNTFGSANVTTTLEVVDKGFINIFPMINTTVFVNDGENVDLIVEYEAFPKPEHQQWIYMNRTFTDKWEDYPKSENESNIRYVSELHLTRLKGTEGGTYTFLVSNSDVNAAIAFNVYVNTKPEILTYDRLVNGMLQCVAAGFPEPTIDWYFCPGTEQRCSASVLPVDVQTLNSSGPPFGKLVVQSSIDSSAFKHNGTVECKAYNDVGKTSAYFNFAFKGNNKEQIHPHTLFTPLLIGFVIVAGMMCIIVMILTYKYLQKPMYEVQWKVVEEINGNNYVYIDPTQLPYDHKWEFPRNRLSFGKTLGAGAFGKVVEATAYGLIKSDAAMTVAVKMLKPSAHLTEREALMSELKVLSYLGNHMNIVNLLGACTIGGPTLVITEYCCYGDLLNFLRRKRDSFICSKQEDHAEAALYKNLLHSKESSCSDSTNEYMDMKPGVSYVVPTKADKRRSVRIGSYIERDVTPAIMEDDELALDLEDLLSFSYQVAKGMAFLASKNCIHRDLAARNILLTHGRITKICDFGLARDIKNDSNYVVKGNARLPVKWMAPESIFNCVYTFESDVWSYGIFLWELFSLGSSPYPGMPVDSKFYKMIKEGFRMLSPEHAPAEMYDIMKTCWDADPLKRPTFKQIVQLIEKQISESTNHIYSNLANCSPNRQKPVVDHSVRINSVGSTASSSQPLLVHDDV

B1: anti-siglec/anti-c-Kit bispecific hRND-3/hSR1-1 (bispecific antibody, V domains shown)
VH 1: QVQLVQSGAEVKKPGASVKLSCKASGYAFTSYWMHWVRQAPGQRLEWIGEIYPTNGGTTYAQKFQGRATLTVDKSTSTAYMELSRLRSDDTAVYYCTIEDFYAMDYWGQGTTVTVSS
VL 1: DIVMTQTPLSLSVTPGQPASISCKSSQSLLDSDGKTSLNWLLQKPGQSPQRLIYLVSKLDSGVPDRFSGSGSGTDFTLKISRVEAEDVGVYYCWQGTHFPYTFGQGTKLEIK
VH 2: QVQLVQSGAEVKKPGASVKVSCKASGYTFTSYNMHWVRQAPGQGLEWMGVIYSGNGDTSYAQKFQGRVTMTADTSTSTAYMELSSLRSEDTAVYYCARERDTRFGNWGQGTLVTVSS
VL 2: DIQLTQSPSSLSASVGDRATITCRASESVDIYGNSFMHWYQQKPGKAPKLLIYLASNLESGVPSRFSGSGSGTDFTLTISSVQPEDFATYYCQQNNEDPYTFGQGTKLEIK
In the case of B1, the “IC50 (read off the curve)” value is reported as roughly 200 pM.
